The values that follow come from patent US6982321.

The target in test [1] is hen eggwhite lysozyme (hen) (UniProt P00698). The test can be described thus: fluorescence titration with lysozyme, 50 nM antibody, 25°.
Test [2] shares this target. The test is described as follows: fluorescence quenching titration with hen eggwhite lysozyme.
The target in test [3] is Campath-1 antigen on human lymphocytes (human) (UniProt P31358). The test can be described thus: cell-based or functional assay.
Test [4] has as its target partially purified Campath-1 antigen (obtained from a glycolipid extract from human spleen) (human) (UniProt P31358). The test can be described thus: direct binding assay on coated partially purified Campath-1 antigen, biotin anti-rat IgG2b detection; concentration at 50% maximal binding.
Test [5] has the same target. The test is described as follows: direct binding assay on coated partially purified Campath-1 antigen; concentration at 50% binding.

RaVHCAMP-RaIgG2B, sequence (P20761 whole entry): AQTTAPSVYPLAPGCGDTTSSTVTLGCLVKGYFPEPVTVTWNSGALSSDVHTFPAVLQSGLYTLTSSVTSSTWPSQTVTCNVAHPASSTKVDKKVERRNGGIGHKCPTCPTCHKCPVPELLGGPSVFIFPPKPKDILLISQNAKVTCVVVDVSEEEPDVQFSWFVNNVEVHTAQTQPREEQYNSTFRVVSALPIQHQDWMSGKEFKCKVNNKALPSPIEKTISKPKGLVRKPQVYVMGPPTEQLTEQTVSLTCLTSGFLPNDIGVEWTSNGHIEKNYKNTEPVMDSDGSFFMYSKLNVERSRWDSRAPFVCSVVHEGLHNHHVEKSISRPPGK
hen eggwhite lysozyme (hen), sequence (P00698 19-147 limits assumed): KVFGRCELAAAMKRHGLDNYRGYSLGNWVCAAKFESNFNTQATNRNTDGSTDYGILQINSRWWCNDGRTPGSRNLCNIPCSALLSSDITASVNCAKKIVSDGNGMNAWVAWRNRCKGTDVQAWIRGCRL
HuVHCAMP(Ser27 to Phe, Ser30 to Thr)-RaIgG2B, sequence (P20761 whole entry): as the sequence (P20761 whole entry) above
HuVHCAMP(Ser27 to Phe)-RaIgG2B, sequence (P20761 whole entry): as above
HuVHCAMP-RaIgG2B, sequence (P20761 whole entry): as above

In the case of D1.3 (H2K2) (antibody), in test [1], the equivalence point (binding sites per mole) (binding sites per mole) was determined as 1.8. In addition, the Kd (in general, the concentration at which binding is half-saturated) in test [2] is 14.4 nM.
The substance D1.3 (H2K2) (reassociated) (antibody) came in with a Kd in test [2] of 11.4 nM. In other words, the double-digit nanomolar range.
As to “HuVHCAMP(Ser27 to Phe)-RaIgG2B (from UniProt P20761 1-333) (antibody)”, the Concentration of antibody in ug/ml at 50% binding or lysis: complement lysis in test [3] is 16.3 µg/mL. For the same substance, the EC50 (in general, the concentration giving half of the maximal effect) in test [4] came out at 1.8 µg/mL.
In test [3], “HuVHCAMP(Ser27 to Phe, Ser30 to Thr)-RaIgG2B (from UniProt P20761 1-333) (antibody)” yielded a Concentration of antibody in ug/ml at 50% binding or lysis: complement lysis of 17.6 µg/mL. In test [4], this substance came in with an EC50 of 2 µg/mL.
For the substance “HuVHCAMP-RaIgG2B (from UniProt P20761 1-333) (antibody)”, in test [4], the EC50 worked out at 27.3 µg/mL.
Substance “RaVHCAMP-RaIgG2B (from UniProt P20761 1-333) (antibody)” came in with a Concentration of antibody in ug/ml at 50% binding or lysis: complement lysis in test [3] of 2.1 µg/mL. The EC50 was 1.01 µg/mL in test [5] and 0.7 µg/mL in test [4].
In the case of “recombinant D1.3 (H*2K2) (reassociated) (antibody)”, the Kd in test [2] is 9.2 nM.
